In article PMC8977021, “bZIP transcription factors PcYap1 and PcRsmA link oxidative stress response to secondary metabolism and development in Penicillium chrysogenum”:

T1: PcAtf21 del319-319 (Penicillium chrysogenum Wis54-1255 (P. rubens Wis54-1255)) (UniProt B6HLX5)
T1 sequence: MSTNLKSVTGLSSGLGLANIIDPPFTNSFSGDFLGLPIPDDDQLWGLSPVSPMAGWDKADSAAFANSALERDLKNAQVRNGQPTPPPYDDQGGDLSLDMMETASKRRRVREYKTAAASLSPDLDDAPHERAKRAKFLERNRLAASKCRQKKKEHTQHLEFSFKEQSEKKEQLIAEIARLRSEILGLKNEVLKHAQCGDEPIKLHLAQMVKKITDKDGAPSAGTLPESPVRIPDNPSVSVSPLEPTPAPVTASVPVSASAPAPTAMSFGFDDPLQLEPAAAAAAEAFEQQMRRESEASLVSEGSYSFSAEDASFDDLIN

T2: PcAtf21 (Penicillium chrysogenum Wis54-1255 (P. …, UniProt B6HLX5 1-318, del319-319))
T2 sequence: T1 sequence

B1: penDE-CRE123 (dsDNA)
DNA 1: AGGTCCTGCATTAGCGTACGCCCCAGGTTTAGATCAAAGTTACGTAATTTATATGTA
DNA 2: TACATATAAATTACGTAACTTTGATCTAAACCTGGGGCGTACGCTAATGCAGGACCT
B2: NorR4 (dsDNA)
DNA 1: TTTCAACATTTCTTGAGTACTTTTCTAAGCCGTGACATAATGAACGGATCA
DNA 2: TGATCCGTTCATTATGTCACGGCTTAGAAAAGTACTCAAGAAATGTTGAAA

Assays:
[1] = target: T1, PcAtf21 del319-319 (Penicillium chrysogenum Wis54-1255 (P. rubens Wis54-1255)); assay: EMSA; details: LightShift binding buffer 1X, about 10% glycerol, 5 mM MgCl2, 20 fmol biotin probe, 10 ug protein, 20 uL, room temperature 20 min; 5% native PAGE in 0.5X TBE …
[2] = target: T2, PcAtf21; assay: EMSA; LightShift binding buffer 1X, about 10% glycerol, 5 mM MgCl2, 20 fmol biotin probe, 10 ug protein, 20 uL, room temperature 20 min; 5% native PAGE in 0.5X TBE; pH and salt not given; details: protein: recombinant; tags: C-terminal c-myc-6xHis; chain copies: 2; label: 3' biotin; blunt

| Molecule | binding [1] | binding result [2] |
| --- | --- | --- |
| AACATCGCCGTCGTTGAGTGCACGTTGCCTACTCTCTCGTGGCTTGGCTGGGCCCACGAGCCCGATTGACTCGACGGTGTTACTTGGGTATCTATGGCCCCGTTTTCTGGCACGGTAATGATAAGTACTTACTAGTCTTCGAGCGGGGGAGTGTTGCTCTGCCCGAGCATCAACGATTGGCCTGA (double strand) [probe 4] | no binding | – |
| TGTTTATGCTGAGACAACCTGGAGACATTATACGCTTGCAGCCCAGATGCTTACTGGATGGGGCCGCTGGAGCCAGTGTAAAATTAGTAACCGTATCTCGAAGTCGGAGGGTCTTTGGTGGTCTGAGATTTCAGTCGGTCCGCACCGTGGCATTTGCAGACGGTGCGATCAGGCCAATCGTTGATGCTCGG (double strand) [probe 5] | no binding | – |
| B1 | – | no binding |
| B2 | – | binds |
